Results taken from patent US20240174727A1, “LONG-ACTING NATRIURETIC PEPTIDES AND USES THEREOF” (Eli Lilly and Company, priority 2022, published 2024).
Numbered stars: 1 amine (or outer) side, 2 acyl side, 3 side chain; on linkers, the order of the positions; unused ones are H or OH. Bridge positions count the residues as written; N and C are the ends. Square brackets hold non-standard residues; d marks the D form. * marks the point of attachment. thioacetal = thioacetal linkage between two cysteines (intrachain bond at the bracketed Cys); C20 diacid = O=C(O)CCCCCCCCCCCCCCCCCCC(=O)*; γGlu = O=C(O)[C@H](CCC(=O)[*:2])N[*:1]; 4Pal = N[C@@H](Cc1ccncc1)C(=O)O; βAla = NCCC(=O)O

T1: rat NPRA (rat, UniProt P18910 29-1057)
T1 sequence (looked up): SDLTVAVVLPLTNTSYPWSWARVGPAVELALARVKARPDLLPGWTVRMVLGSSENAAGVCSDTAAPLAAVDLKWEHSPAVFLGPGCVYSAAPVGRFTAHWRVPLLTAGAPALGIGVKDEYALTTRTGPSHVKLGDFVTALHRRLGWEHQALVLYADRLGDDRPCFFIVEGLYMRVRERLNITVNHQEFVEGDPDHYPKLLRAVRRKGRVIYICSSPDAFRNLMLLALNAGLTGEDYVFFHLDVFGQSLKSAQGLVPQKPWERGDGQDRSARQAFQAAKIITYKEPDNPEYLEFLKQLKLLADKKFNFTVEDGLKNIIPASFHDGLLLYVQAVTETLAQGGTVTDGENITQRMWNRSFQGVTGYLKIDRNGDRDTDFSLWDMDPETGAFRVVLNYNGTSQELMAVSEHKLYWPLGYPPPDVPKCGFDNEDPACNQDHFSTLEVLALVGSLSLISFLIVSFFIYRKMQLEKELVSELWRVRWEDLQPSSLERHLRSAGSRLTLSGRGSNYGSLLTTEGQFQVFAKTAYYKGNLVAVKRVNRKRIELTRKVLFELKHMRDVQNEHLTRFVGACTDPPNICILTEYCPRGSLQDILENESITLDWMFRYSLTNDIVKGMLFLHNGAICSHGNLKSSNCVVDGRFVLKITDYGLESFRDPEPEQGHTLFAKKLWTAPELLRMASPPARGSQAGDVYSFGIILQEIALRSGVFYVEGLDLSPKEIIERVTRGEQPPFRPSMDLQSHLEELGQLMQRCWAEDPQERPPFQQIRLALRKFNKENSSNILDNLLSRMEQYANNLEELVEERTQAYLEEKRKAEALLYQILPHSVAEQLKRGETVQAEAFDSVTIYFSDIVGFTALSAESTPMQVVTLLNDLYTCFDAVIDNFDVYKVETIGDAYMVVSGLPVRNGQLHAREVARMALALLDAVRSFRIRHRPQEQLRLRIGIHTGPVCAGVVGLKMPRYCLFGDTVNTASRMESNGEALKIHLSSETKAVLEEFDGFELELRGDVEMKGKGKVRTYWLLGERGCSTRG

T2: rat NPRA (rat, UniProt P18910 29-1057)
T2 sequence (looked up): T1 sequence (looked up)

T3: human NPRA (human, UniProt P16066 33-1061)
T3 sequence (looked up): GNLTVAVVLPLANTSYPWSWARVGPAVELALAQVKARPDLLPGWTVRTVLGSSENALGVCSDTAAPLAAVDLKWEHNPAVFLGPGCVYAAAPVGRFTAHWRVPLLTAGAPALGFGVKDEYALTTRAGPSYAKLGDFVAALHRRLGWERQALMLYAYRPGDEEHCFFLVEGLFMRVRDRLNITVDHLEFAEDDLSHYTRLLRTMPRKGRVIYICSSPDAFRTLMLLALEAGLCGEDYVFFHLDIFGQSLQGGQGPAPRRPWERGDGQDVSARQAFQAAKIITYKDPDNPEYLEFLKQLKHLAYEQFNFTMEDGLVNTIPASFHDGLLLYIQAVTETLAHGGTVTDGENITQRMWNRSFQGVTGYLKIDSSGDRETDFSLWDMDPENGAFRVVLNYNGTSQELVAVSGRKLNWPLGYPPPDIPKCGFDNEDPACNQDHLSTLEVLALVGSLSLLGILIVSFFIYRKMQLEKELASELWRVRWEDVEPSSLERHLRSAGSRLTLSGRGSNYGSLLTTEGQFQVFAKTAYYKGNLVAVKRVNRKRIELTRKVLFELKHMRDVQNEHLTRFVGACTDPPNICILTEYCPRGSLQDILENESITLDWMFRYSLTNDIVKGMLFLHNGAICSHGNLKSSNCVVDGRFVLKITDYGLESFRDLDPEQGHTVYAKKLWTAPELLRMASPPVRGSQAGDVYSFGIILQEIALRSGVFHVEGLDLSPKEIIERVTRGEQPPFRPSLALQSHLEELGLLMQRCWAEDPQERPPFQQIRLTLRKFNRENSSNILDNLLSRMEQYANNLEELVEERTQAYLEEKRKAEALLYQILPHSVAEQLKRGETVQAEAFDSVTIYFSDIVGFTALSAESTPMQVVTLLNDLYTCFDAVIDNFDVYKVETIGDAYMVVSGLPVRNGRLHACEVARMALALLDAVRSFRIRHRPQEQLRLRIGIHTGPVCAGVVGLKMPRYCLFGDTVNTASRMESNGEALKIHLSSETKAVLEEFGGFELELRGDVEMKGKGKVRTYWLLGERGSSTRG

T4: human NPRA (human, UniProt P16066 33-1061)
T4 sequence (looked up): T3 sequence (looked up)

B1: HOOC-(CH2)18-CO-(γGlu)-EKEKEKGEKPRSS[CFGKRIDRIG-Orn-QSGLGC]PSFRHGSPSSGAPPPS-NH2 (peptide)
peptide: XEKEKEKGEKPRSSCFGKRIDRIGXQSGLGCPSFRHGSPSSGAPPPS
modifications: N-terminus acylated with HOOC-(CH2)18-CO-(γGlu)-; Orn; thioacetal linkage between the two bracketed Cys; C-terminal amide
B2: Example 20 (peptide)
peptide: {C20 diacid}-[γGlu]EKEKEKGS[4Pal]RRSSCFGGRIDRIGAQSGLGCPSFR[4Pal]-NH2
modifications: disulfide 15-31
SMILES: CC[C@H](C)[C@@H]1NC(=O)[C@H](CCCNC(=N)N)NC(=O)[C@H](CC(=O)O)NC(=O)[C@H]([C@@H](C)CC)NC(=O)[C@H](CCCNC(=N)N)NC(=O)CNC(=O)CNC(=O)[C@H](Cc2ccccc2)NC(=O)[C@@H](NC(=O)[C@H](CO)NC(=O)[C@H](CO)NC(=O)[C@H](CCCNC(=N)N)NC(=O)[C@H](CCCNC(=N)N)NC(=O)[C@H](Cc2ccncc2)NC(=O)[C@H](CO)NC(=O)CNC(=O)[C@H](CCCCN)NC(=O)[C@H](CCC(=O)O)NC(=O)[C@H](CCCCN)NC(=O)[C@H](CCC(=O)O)NC(=O)[C@H](CCCCN)NC(=O)[C@H](CCC(=O)O)NC(=O)CC[C@H](NC(=O)CCCCCCCCCCCCCCCCCCC(=O)O)C(=O)O)CSSC[C@@H](C(=O)N2CCC[C@H]2C(=O)N[C@@H](CO)C(=O)N[C@@H](Cc2ccccc2)C(=O)N[C@@H](CCCNC(=N)N)C(=O)N[C@@H](Cc2ccncc2)C(N)=O)NC(=O)CNC(=O)[C@H](CC(C)C)NC(=O)CNC(=O)[C@H](CO)NC(=O)[C@H](CCC(N)=O)NC(=O)[C@H](C)NC(=O)CNC1=O
B3: HOOC-(CH2)18-CO-(γGlu)-EKEKEKG-(AEEA)6-S-4Pal-βAla-RSS[CFGGRIDRIGHYSGLGC]PSFRHGSPSSGAPPPS-NH2 (peptide)
peptide: SXXRSSCFGGRIDRIGHYSGLGCPSFRHGSPSSGAPPPS
modifications: N-terminus acylated with HOOC-(CH2)18-CO-(γGlu)-; (AEEA)6 after EKEKEKG; 4Pal; βAla; thioacetal linkage between the two bracketed Cys; C-terminal amide
B4: Example 15 (peptide)
peptide: {C20 diacid}-[γGlu]EKEKEKGS[4Pal]RRSSCFGGRIDRIGAQSGLGCNSFR[4Pal]-NH2
modifications: disulfide 15-31
SMILES: CC[C@H](C)[C@@H]1NC(=O)[C@H](CCCNC(=N)N)NC(=O)[C@H](CC(=O)O)NC(=O)[C@H]([C@@H](C)CC)NC(=O)[C@H](CCCNC(=N)N)NC(=O)CNC(=O)CNC(=O)[C@H](Cc2ccccc2)NC(=O)[C@@H](NC(=O)[C@H](CO)NC(=O)[C@H](CO)NC(=O)[C@H](CCCNC(=N)N)NC(=O)[C@H](CCCNC(=N)N)NC(=O)[C@H](Cc2ccncc2)NC(=O)[C@H](CO)NC(=O)CNC(=O)[C@H](CCCCN)NC(=O)[C@H](CCC(=O)O)NC(=O)[C@H](CCCCN)NC(=O)[C@H](CCC(=O)O)NC(=O)[C@H](CCCCN)NC(=O)[C@H](CCC(=O)O)NC(=O)CC[C@H](NC(=O)CCCCCCCCCCCCCCCCCCC(=O)O)C(=O)O)CSSC[C@@H](C(=O)N[C@@H](CC(N)=O)C(=O)N[C@@H](CO)C(=O)N[C@@H](Cc2ccccc2)C(=O)N[C@@H](CCCNC(=N)N)C(=O)N[C@@H](Cc2ccncc2)C(N)=O)NC(=O)CNC(=O)[C@H](CC(C)C)NC(=O)CNC(=O)[C@H](CO)NC(=O)[C@H](CCC(N)=O)NC(=O)[C@H](C)NC(=O)CNC1=O

Tests used:
Assay in all cases: cell-based or functional assay
rat NPRA [1] = biological target: T1, rat NPRA
rat NPRA [2] = biological target: T2, rat NPRA; remark: listed apart in the source
human NPRA [3] = biological target: T3, human NPRA
human NPRA [4] = biological target: T4, human NPRA; remark: listed apart in the source

| Binder | cGMP Assay (EC50, pM) w/Casein, rNPRA (rat NPRA [1]) | cGMP Assay (EC50, pM) w/BSA (rat NPRA [2]) | cGMP Assay (EC50, pM) w/Casein (rat NPRA [2]) | cGMP Assay (EC50, pM) w/BSA (human NPRA [3]) | cGMP Assay (EC50, pM) w/Casein (human NPRA [3]) | cGMP Assay (EC50, pM) w/Casein, hNPRA (human NPRA [4]) | cGMP Assay (EC50, pM) w/BSA, rNPRA (rat NPRA [1]) | cGMP Assay (EC50, pM) w/BSA, hNPRA (human NPRA [4]) |
| --- | --- | --- | --- | --- | --- | --- | --- | --- |
| B1 | 192000 pM | – | – | – | – | – | – | – |
| B2 | – | 104000 pM | 1390 pM | 129000 pM | 2900 pM | – | – | – |
| B3 | – | – | – | – | – | 1530 pM | – | – |
| {C20 diacid-γGlu}-EKEKEKGEK[βAla]RSSCFGKRIDRIGHYSGLGCPSFRHGSPSSGAPPPS-NH2 (bridge 14-30 via thioacetal) [HOOC-(CH2)18-CO-(γGlu)-EKEKEKGEK-βAla-RSS[CFGKRIDRIGHYSGLGC]PSFRHGSPSSGAPPPS-NH2] | 1340 pM | – | – | – | – | 282 pM | 138000 pM | 11600 pM |
| B4 | – | 32600 pM | 254 pM | 57300 pM | 912 pM | – | – | – |
